Results from patent publication US6638724.

System: T1, human BLNK-1 (B cell LINKER PROTEIN, 70,000 Mr protein)
T1 sequence: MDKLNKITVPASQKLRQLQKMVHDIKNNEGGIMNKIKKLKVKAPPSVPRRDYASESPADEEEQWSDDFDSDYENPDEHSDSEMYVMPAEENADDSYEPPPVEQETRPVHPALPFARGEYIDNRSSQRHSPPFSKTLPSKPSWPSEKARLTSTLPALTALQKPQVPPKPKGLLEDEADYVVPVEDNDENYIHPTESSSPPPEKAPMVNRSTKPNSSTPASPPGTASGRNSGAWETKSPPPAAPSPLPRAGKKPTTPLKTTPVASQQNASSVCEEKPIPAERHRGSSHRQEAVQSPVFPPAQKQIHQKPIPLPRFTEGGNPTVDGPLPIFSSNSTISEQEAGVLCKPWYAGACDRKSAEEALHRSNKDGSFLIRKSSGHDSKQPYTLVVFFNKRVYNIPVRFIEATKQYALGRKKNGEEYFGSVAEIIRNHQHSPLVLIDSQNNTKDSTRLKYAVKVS

Substance: Syk protein tyrosine kinase
- tyrosine phosphorylation of BLNK: Syk can phosphorylate BLNK when co-expressed in insect cells, and in vitro
